The labels stand for the following.
T1: biotinylated human H202D GDF-15 variant (human, UniProt Q99988 197-308, biotinylated, sites not stated)
T1 construct: also called Human GDF-15 H202D
T1 chain: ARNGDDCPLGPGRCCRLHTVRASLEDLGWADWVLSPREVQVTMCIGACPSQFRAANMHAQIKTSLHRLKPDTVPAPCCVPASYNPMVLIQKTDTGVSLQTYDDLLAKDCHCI

T2: biotinylated cynomolgus GDF-15 (cynomolgus, UniProt G7PWZ3 197-308, biotinylated, sites not stated)
T2 construct: also called Cyno GDF-15
T2 sequence: T1 chain with D6R, R21H, A54E, T63M, S64N, I112V

T3: mouse GDF-15 (mouse, UniProt Q9Z0J7 189-303)
T3 construct: also called mGDF-15
T3 sequence: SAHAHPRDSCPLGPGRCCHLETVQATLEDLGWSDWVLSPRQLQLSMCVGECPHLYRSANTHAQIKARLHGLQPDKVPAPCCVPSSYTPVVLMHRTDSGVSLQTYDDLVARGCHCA

T4: mature human GDF-15 (human, UniProt Q99988 197-308)
T4 construct: Homodimer; also called hGDF-15; recombinant hu-GDF15
T4 sequence: T1 chain with D6H

B1: AB1170047 (antibody, V domains shown)
VH: QVQLQQSGPELVKPGASVKLSCKASGYTFTSYDINWVKQRPGQGLEWIGWIYPRDGISKYNEKFKGKATLTVDTSSSTAYMELHSLTSEDSAVYFCAGTYDPAYFDYWGQGTTLTVSS
VL: DIVLTQSPATLSVTPGDRVSLSCRASQSISYYLHWYQQKSHESPRLLIKYASQSISGIPSRFSGSGSGTDFTLSINSVETEDFGMYFCQQSNSWPYTFGGGTKLEIK
B2: AB1170069 (antibody, V domains shown)
VH: B1 VH with K65E, Y100S
VL: B1 VL
B3: AB1170043 (antibody, V domains shown)
VH: QVTLKESGPGILQSSQTLSLTCSFSGFSLITSGLGVSWIRQPSGKGLEWLAHIYWDDDKRYNPSLKSRLTISKDTSRNQVFLKITSVDTADTATYYCARGGYDGYYDYWGQGTTLTVSS
VL: DVVMTQTPLSLPVSLGDQASISCRSSQSIVHSNGNTNLEWYLQKPGQSPKLLIYKVSNRLSGVPDRFSGSGSGTDFTLKISRVEAEDLGVYYCFQGSHVRTFGGGTKLEIK
B4: AB1170086 (antibody, V domains shown)
VH: B3 VH with I30S, L34M, K66E, A90T
VL: B3 VL with F76S
B5: AB1170070 (antibody, V domains shown)
VH: EVQLQQSGPELVKPGASVKIPCKASGYTFTDYNMDWVKQSHGKSLEWIGDINPYNGITIYNQKFKGKATLTVDKSSSTAYMELRSLTSEDTAVYYCAREEKLGTSFDYWGQGTTLTVSS
VL: DIQMTQSPASLSASVGETVTITCRASENIYSNLAWYQQKQGKSPQLLVYAATNLADGVPSRFSGSGSGTQFSLKINSLQPEDFGSYYCQHFYGTPWTFGGGTKLEIK
B6: AB1170006 (antibody, V domains shown)
VH: B5 VH with Y54N, I57V, Y94F, K101L, L102T, T104N, S105A, F106M, T114S, L115V
VL: B5 VL with A13V, N32H, F71Y, P80S, Y92W
B7: AB1170036 (antibody, V domains shown)
VH: DVKLVESGEGLVKPGGSLKLSCAASGFTFSSYAMSWVRQTPEKRLEWVAYISSGGDNIYYADTVKGRFTISRDNARNTLYLQMSSLKSEDTAMYYCTRALVENAYFDYWGQGTTLTVSS
VL: DSVLTQSPASLLVSLGQRATISCRASKSVSTSTYSYMHWYQQKPGQPPKLLIKYASYLESGVPARFSGSGSGTDFTLNIHPVEEEDAATYYCQHSREFPWTFGGGTKLEIK
B8: AB1170040 (antibody, V domains shown)
VH: B7 VH with N57Y, E102D
VL: B7 VL with S2I, L12A, T33S, S60F
B9: AB1170019 (antibody, V domains shown)
VH: EVQLQQSGPELVKPGASVKIPCKASGYTFTDYNMDWVKQSHGKSLEWIGDINPNNGGTFYNQKFKDKATLTVDKSSSTAYMELRSLTSEDTAVYYCAREEKLYFGLMDYWGQGTSVTVSS
VL: DIQMTQSPASLSASVGETVTITCRASENIYSYLAWYQQKQGKSPQLLVYNAKTLAEGVPSRFSGSGSGIQFSLKINILQPEDFGNYYCQHQYGSPPTFGGGTKLEIK
B10: AB1170010 (antibody, V domains shown)
VH: QVTLKESGPGILQPSQTLSLTCSFSGFSLSTYGMGVGWIRQPSGKGLEWLANIWWNDDKYYNSALKSRLTISKDTSNNQVFLKISSVDTADTATYYCAQEVYGWFAYWGQGTLVTVSS
VL: DIVMTQSQKFMSTSVGDRVSVTCKASQNVGTNVAWYQQKPGQSPKALIYSASYRYSGVPDRFTGSGSGTDFTLTISNVQSEDLAEYFCQQYNSYPLTFGGGTKLEIK
B11: AB1170073 (antibody, V domains shown)
VH: QVTLKESGPGILQPSQTLSLTCSFSGFSLSTFGMGVGWIRQPSGKGLEWLAHIWWDDDKYYNPALKSRLTISKDTSKNQVFLKIANVDTADTATYYCARIAYDGYLDYWGQGTTLTVSS
VL: B10 VL with N32D, A46S, L96Y
B12: AB1170072 (antibody, V domains shown)
VH: B10 VH with E100M, V101A, G103S
VL: B10 VL with V29M, G30D, L96F, G100S
B13: AB1170028 (antibody, V domains shown)
VH: DVKLVESGEGLVKPGGSLKLSCAASGFTFSSFAMSWVRQTPEKRLEWVAYITSGGDYIFYADTVKGRFTISRDNARNTLYLQMSSLKSEDTAMYYCTRDDGYLWFAYWGQGTLVTVSA
VL: SIVMTQTPKFLPVSAGDRVTMTCKASQNVGNNVAWYQQKPGQSPKLLIYYASNRYTGVPDRFTGSGSGTDFTFTISSVQVEDLAVYFCQQHYSSPLTFGAGTKLELK
B14: AB1170074 (antibody, V domains shown)
VH: EVQLQQSGRELVKPGASVKMSCKASGYTFTNYVMHWVKQKPGQGLEWIGYINPHNDGTEYSEKFKGKATLTSDKSSSTAYMELSSLTSEDSAVYYCARWYYDGGYFAYWGQGTLVTVSA
VL: DIVMTQSPATLSVTPGDRVSLSCRASQSISDYLHWYQQKSHESPRLLIKYASQSISGIPSRFSGSGSGSDFTLSINSVEPEDVGVYYCQNGHSFPLTFGAGTKLELK

Changes are numbered by the printed parent chain.

The target of the first assay is T1, biotinylated human H202D GDF-15 variant. Put plainly: HTRF binding assay, biotinylated antigen, titration of antibody. The source says: (§1) Supernatants generated from the immunizations with human GDF-15 and purified IgGs were screened to identify IgGs with specific binding to human, cynomolgus, or mouse GDF-15. The HTRF (Homogeneous Time Resolved Fluorescence) assay is based on detection of a measurable FRET signal upon binding of a titration of test antibody to biotinylated human H202D GDF-15 variant, cynomolgus GDF-15 and mouse GDF-15. Europium cryptate (EuK) labelled Streptavidin and anti-human IgG XL665 (Cis Bio) were used as secondary detection reagents serving as energy donor and acceptor respectively. In the absence of test antibody binding, there is no detectable FRET fluorescence. When test antibody binds to GDF-15, the resulting physical proximity between the secondary reagent donor/acceptor pair results in FRET. FRET was measured ratiometrically [665 nm (acceptor)/620 nm (donor)] on an Envision plate reader, and data plotted using PRISM 6® software (Graphpad).
For B1, the binding result was “binds”.

Regarding B2, the binding result is listed as “binds”.

With B3, the binding result is recorded as “binds”.

For B4, the binding result is on record as “binds”.

As to B5, the binding result was “binds”.

On to B6, for which the binding result is “binds”.

On to B7, for which the binding result was “binds”.

Regarding B8, the binding result was “binds”.

For B9, the binding result is “binds”.

As for B10, the binding result was “binds”.

Regarding B11, the binding result is “binds”.

Consider B12, for which the binding result was “binds”.

In the case of B13, the binding result was “binds”.

For another assay, the target named is T2, biotinylated cynomolgus GDF-15. Described as above.
Source text: as §1
With B1, the binding result is recorded as “binds”.

As to B2, the binding result is “binds”.

Take B14: the binding result is listed as “binds”.

For B3, the binding result is recorded as “binds”.

Consider B4, for which the binding result is listed as “binds”.

Take B5: the binding result is “binds”.

For the molecule B6, the binding result is “binds”.

In the case of B7, the binding result was “binds”.

Consider B8, for which the binding result is given as “binds”.

B9: the binding result is on record as “binds”.

With B10, the binding result is given as “binds”.

B11: the binding result was “binds”.

Turning to B12, the binding result is “binds”.

Regarding B13, the binding result is “binds”.

The target in a further assay is T3, mouse GDF-15. The description is as above.
Source text: as §1
For B1, the binding result was “binds”.

As to B2, the binding result was “binds”.

As to B14, the binding result is recorded as “binds”.

As to B3, the binding result is on record as “binds”.

Regarding B4, the binding result is reported as “binds”.

Turning to B5, the binding result is “binds”.

Regarding B6, the binding result is on record as “binds”.

On to B7, for which the binding result is “binds”.

For B8, the binding result is “binds”.

For the molecule B10, the binding result is reported as “binds”.

As for B11, the binding result is listed as “binds”.

Turning to B12, the binding result is on record as “binds”.

Take B13: the binding result is recorded as “binds”.

A further assay deals with T4, mature human GDF-15. Put plainly: HTRF epitope competition; competitor DyLight 650 labelled Antibody A; Europium labelled human GDF-15. The text has this:
Antibodies from the immunizations with human GDF-15, in the form of crude supernatants from the immunization or in the form of purified IgGs, were chosen on the basis that they bind and compete with an epitope recognized by a control anti-GDF-15 antibody “Antibody A”. A biochemical epitope competition format was applied using an HTRF epitope competition assay that measured the binding of DyLight 650 labelled Antibody A to Europium labelled human GDF-15 (Prospec). In the absence of Antibody A binding, there is no detectable FRET fluorescence. When Antibody A binds to GDF-15, the resulting physical proximity between the secondary reagent donor/acceptor pair results in FRET. Competition with an antibody that recognizes the same or similar epitope will result in a dose dependent reduction of the FRET signal. FRET was measured ratiometrically [665 nm (acceptor)/620 nm (donor)] on an Envision plate reader, and IC₅₀ values were determined by curve fitting the data to a four parameter logistic equation using PRISM 6® software (Graphpad).
Take B1: the IC50 turned out to be 1.36 nM.

Molecule B2 showed a 50% inhibitory concentration (IC50) of 0.759 nM.

For B14, the IC50 was determined as 1.37 nM.

Molecule B3 had a half-maximal inhibitory concentration (IC50) of 1.95 nM.

In the case of B4, the IC50 was determined as 1.11 nM.

In the case of B5, the IC50 was 6.83 nM.

In turn, B6 returned an IC50 of 97.1 nM.

Molecule B7 showed a concentration for half-maximal inhibition (IC50) of 0.622 nM.

In turn, B8 yielded an IC50 of 1.42 nM.

Molecule B9 gave an IC50 of 0.864 nM.

The molecule B10 showed a half-inhibitory concentration (IC50) of 0.758 nM.

As to B11, the IC50 was determined as 2.11 nM.

B12: the 50% inhibitory concentration (IC50) was 0.693 nM.

B13 displayed a 50% inhibitory concentration (IC50) of 0.485 nM.

The record behind these values is patent US20220281965A1 (AstraZeneca / MedImmune, published 2022).
